Source: patent US20070032637A1

Target: EGFR on A431 cells (human squamous cell carcinoma cells) (human) (UniProt P00533)
Test: inhibition of the binding of Eu-EGF (10 nM) to A431 cells, time-resolved fluorescence; blocked ligand: Eu-EGF

IC50 (read off the curve): 0.6 µg/mL
Substance: anti-EGFR monoclonal antibody Ab-3 (Oncogene)
